Tests used:
[1] = biological target: hFcγRIIIaV on hFcγRIIIaV-expressing Jurkat cells (human, UniProt P08637 17-254); assay: cell-based or functional assay
[2] = biological target: T1, hFcγRIIaH on hFcγRIIaH-expressing Jurkat cells (human, UniProt P12318 34-317); assay: cell-based or functional assay
T1 sequence (looked up): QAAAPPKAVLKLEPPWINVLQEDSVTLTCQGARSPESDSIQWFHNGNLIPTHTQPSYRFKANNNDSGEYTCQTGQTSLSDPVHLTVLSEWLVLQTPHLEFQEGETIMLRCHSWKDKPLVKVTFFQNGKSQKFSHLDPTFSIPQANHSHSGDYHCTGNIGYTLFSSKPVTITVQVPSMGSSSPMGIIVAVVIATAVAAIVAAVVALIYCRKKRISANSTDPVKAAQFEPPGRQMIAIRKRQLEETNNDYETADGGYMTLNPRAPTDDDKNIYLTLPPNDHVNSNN

[3] = biological target: T2, human FcγRIa extracellular domain (human, UniProt P12314 16-292); assay: SPR Biacore 8K+; KD of G1d divided by KD of this antibody;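 further: antibodies captured on an anti-Fab-kappa streptavidin chip, soluble FcγR ectodomains flowed over, KD by steady-state fit for FcγRIIb and Langmuir kinetic model for the other receptors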
T2 construct: extracellular domain; also called hFcγR Ia; hFcγRIa
T2 sequence (P12314 16-292): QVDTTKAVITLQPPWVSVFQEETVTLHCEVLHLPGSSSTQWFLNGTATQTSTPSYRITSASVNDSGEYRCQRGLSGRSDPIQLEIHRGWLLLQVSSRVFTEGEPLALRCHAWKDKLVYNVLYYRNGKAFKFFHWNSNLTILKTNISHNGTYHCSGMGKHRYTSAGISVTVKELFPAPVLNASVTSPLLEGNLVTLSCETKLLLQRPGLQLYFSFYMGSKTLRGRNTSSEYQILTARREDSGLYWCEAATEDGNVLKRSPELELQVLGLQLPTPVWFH

[4] = biological target: T3, human FcγRIIa H extracellular domain (human, UniProt P12318 34-217); assay: as above
T3 construct: extracellular domain; also called hFcγR IIa H
T3 sequence (looked up): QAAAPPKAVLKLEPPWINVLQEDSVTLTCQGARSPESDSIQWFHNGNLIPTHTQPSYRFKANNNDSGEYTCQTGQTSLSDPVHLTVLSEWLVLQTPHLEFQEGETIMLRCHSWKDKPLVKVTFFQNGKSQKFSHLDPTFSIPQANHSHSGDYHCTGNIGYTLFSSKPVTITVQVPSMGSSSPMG

[5] = biological target: T4, human FcγRIIa R extracellular domain (human, UniProt P12318 34-217); assay: as above
T4 construct: extracellular domain; also called hFcγR IIa R
T4 sequence (looked up): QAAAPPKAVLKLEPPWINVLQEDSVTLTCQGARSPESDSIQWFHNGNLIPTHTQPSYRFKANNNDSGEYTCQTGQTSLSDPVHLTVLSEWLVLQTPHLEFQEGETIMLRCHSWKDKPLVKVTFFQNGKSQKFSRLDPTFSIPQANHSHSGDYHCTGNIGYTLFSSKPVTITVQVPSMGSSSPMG

[6] = biological target: T5, human FcγRIIb extracellular domain (human, UniProt P31994 43-217); assay: as above
T5 construct: extracellular domain; also called hFcγR IIb
T5 sequence (looked up): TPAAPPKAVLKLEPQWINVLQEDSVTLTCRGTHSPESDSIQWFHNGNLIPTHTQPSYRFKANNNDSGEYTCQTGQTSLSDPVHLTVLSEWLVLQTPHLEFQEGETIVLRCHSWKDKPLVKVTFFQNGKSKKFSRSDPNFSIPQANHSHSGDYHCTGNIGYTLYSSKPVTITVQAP

[7] = biological target: T6, human FcγRIIIa F extracellular domain (human, UniProt P08637 17-208); assay: as above
T6 construct: extracellular domain; also called hFcγR IIIa F
T6 sequence (P08637 17-208): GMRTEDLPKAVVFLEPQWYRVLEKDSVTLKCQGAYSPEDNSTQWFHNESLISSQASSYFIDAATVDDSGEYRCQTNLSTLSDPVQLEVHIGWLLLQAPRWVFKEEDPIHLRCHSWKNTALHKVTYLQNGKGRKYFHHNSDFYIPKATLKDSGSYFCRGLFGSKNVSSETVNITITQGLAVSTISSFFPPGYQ

[8] = biological target: T7, human FcγRIIIa V extracellular domain (human, UniProt P08637 17-208); assay: as above
T7 construct: extracellular domain; also called hFcγR IIIa V
T7 sequence (P08637 17-208 F176V limits assumed): as the sequence (P08637 17-208) above, with F160V counted along it

[9] = biological target: T3, human FcγRIIa H extracellular domain; assay: SPR Biacore 8K+; KD for FcγRIIb divided by KD for this FcγR;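 further: antibodies captured on an anti-human Fab kappa SA chip with soluble human FcγR ectodomains flowed over, FcγRIIb KD from steady-state fit, other FcγR KD from Langmuir model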
[10] = biological target: T4, human FcγRIIa R extracellular domain; assay: as above
[11] = biological target: T6, human FcγRIIIa F extracellular domain; assay: as above
[12] = biological target: T7, human FcγRIIIa V extracellular domain; assay: as above
[13] = biological target: T2, human FcγRIa extracellular domain; assay: SPR Biacore 8K+, antibody captured, FcγR as analyte, 1:1 Langmuir model;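 further: antibodies captured on a streptavidin chip through a biotinylated anti-human Fab kappa reagent, with FcγR extracellular domains injected in pH 7.4 phosphate buffer at 25 °C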
Procedure: (§1) The interaction between the produced antibodies and human FcγRs was analyzed using Biacore 8K+ by the method below. For the running buffer, 50 mM Na-Phosphate, 150 mM NaCl, and 0.05% Tween20 (pH 7.4) was used, and measurement was performed at 25° C. The sensor chip used was a Series S SA chip (GE Healthcare) onto which CaptureSelect Human Fab-kappa Kinetics Biotin Conjugate (Thermo Fisher Scientific) was immobilized. An antibody of interest was captured onto this chip, and each FcγR diluted with the running buffer was allowed to interact with it. The chip was regenerated using 10 mM Glycine-HCl (pH 1.5), and repeatedly used to capture antibodies and perform measurement. The dissociation constants KD (mol/L) of each antibody for FcγRs were calculated using Biacore Insight Evaluation Software, with a steady state affinity model for the dissociation constant for FcγRIIb and a 1:1 Langmuir binding model for the dissociation constants for the other FcγRs (Table 48).

[14] = biological target: T3, human FcγRIIa H extracellular domain; assay: as above
Procedure: as §1

[15] = biological target: T4, human FcγRIIa R extracellular domain; assay: as above
Procedure: as §1

[16] = biological target: T6, human FcγRIIIa F extracellular domain; assay: as above
Procedure: as §1

[17] = biological target: T7, human FcγRIIIa V extracellular domain; assay: as above
Procedure: as §1

[18] = biological target: T5, human FcγRIIb extracellular domain; assay: SPR Biacore 8K+, antibody captured, FcγR as analyte, steady state affinity model
Procedure: as §1

[19] = biological target: T8, human C1q protein (Calbiochem) (human, UniProt P02745 23-245; P02746 28-253; P02747 29-245); assay: ELISA: antibody coated on the plate at the varied concentration, hC1q 3 µg/mL added, detected with HRP-conjugated anti-hC1q antibody, O.D (450-690nm)
T8 construct: bought; also called hC1q
T8 sequence (P02745 23-245 limits assumed, chain 1 of 3): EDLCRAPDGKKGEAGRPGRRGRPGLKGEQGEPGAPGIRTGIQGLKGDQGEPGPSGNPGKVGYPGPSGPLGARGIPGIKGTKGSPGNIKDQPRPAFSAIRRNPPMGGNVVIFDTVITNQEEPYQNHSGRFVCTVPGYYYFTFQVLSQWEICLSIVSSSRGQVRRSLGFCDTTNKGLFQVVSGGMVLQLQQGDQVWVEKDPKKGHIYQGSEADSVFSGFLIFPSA
T8 sequence (P02746 28-253 limits assumed, chain 2 of 3): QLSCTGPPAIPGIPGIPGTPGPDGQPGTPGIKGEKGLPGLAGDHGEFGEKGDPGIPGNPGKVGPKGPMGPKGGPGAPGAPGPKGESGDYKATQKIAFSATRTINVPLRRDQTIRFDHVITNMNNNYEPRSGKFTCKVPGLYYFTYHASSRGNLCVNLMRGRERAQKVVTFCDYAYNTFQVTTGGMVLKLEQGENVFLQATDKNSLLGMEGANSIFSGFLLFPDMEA
T8 sequence (P02747 29-245 limits assumed, chain 3 of 3): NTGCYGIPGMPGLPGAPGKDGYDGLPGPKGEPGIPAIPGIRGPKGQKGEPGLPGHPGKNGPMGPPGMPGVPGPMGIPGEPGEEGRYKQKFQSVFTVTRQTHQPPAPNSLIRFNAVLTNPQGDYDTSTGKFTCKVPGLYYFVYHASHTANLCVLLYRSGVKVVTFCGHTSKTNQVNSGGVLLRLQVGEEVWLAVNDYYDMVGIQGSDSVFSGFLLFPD
Procedure: The antigen used was a human C1q protein (hC1q).
First, a 96-well maxisorp plate (Thermo fisher) was coated at 4° C. overnight with 50 μL of solutions containing each antibody prepared at 30, 10, 3, 1, 0.3, 0.1, and 0.03 μg/mL in PBS. Each well of the plate was washed with Wash buffer to remove the antibody not bound to the plate, and then the wells were blocked with 200 μL of Blocking/dilution Buffer at room temperature for 2 hours or longer. After the Blocking/dilution Buffer was removed from each well, hC1q (Calbiochem) prepared such that the final concentration was 3 μg/mL in Blocking/dilution Buffer was added at 50 μL per well. The plate was then allowed to stand at room temperature for 1 hour to allow hC1q to bind to the antibody within each well. After washing with Wash Buffer, 50 μL of an HRP-conjugated anti-hC1q antibody (AbDSerotec) diluted with Blocking/dilution Buffer was added to each well, and the plate was incubated while standing for 1 hour. After washing with Wash Buffer, TMB single solution (Invitrogen) was added. The color development reaction of the solution in each well was stopped by addition of Stop Buffer, and then the developed color was measured by absorbance at 450 nm and 690 nm.

hFcγRIIIaV on hFcγRIIIaV-expressing Jurkat cells, sequence (P08637 17-254, form in doubt): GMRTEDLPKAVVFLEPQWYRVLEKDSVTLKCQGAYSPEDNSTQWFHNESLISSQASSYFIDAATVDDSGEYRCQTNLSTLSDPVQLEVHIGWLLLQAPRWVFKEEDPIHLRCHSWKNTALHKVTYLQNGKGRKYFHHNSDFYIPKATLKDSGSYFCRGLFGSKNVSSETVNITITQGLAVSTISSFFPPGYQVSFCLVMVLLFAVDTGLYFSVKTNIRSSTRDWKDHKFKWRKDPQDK

EC50 value (hFcγRIIIaV ADCC Reporter Bioassay, Hepa1-6/hEREG target cells) [1]: 0.00167 µg/mL
EC50 value (hFcγRIIaH ADCP Reporter Bioassay, Hepa1-6/hEREG target cells) [2]: 0.0245 µg/mL
Relative value to KD between G1d and hFcgRs [3]: 0.5
Relative value to KD between G1d and hFcgRs [4]: 33.9
Relative value to KD between G1d and hFcgRs [5]: 10.4
Relative value to KD between G1d and hFcgRs [6]: 1.3
Relative value to KD between G1d and hFcgRs [7]: 148
Relative value to KD between G1d and hFcgRs [8]: 92.9
A/I ratio (KD for FcγRIIb divided by KD for each FcγR) [9]: 240
A/I ratio (KD for FcγRIIb divided by KD for each FcγR) [10]: 49.9
A/I ratio (KD for FcγRIIb divided by KD for each FcγR) [11]: 399
A/I ratio (KD for FcγRIIb divided by KD for each FcγR) [12]: 2060
Kd [13]: 0.169 nM
Kd [14]: 33.2 nM
Kd [15]: 160 nM
Kd [16]: 20 nM
Kd [17]: 3.86 nM
Kd [18]: 7960 nM
binding result [19]: binds
B1: H240-Kn462/L73-k0//H240-Hl441/L73-k0 (antibody, human IgG1, kappa)
heavy 1: QDQLVQSGAEVKKPGASVKVSCKASGFNIKDTYIQWVRQAPGQGLEWMGRIDPLRKQTKYREKFEGRVTITADTSTNTAYMELSSLRSEDTAVYYCVRSGREFDYWGQGTLVTVSSASTKGPSVFPLAPSSKSTSGGTAALGCLVKDYFPEPVTVSWNSGALTSGVHTFPAVLQSSGLYSLSSVVTVPSSSLGTQTYICNVNHKPSNTKVDKKVEPKSCDKTHTCPPCPAPEFQWGPMVFLFPPKPKDVLMISRTPEVTCVVVDVSDEEPEVKFNWYVDGVEVHNAKTKPREEQYNATYRVVSVLPVLHQDWLNGKEYKCKVSNDALPAPIEKTISKAKGQPREPQVCTLPPSRDELTKNQVSLWCLVKGFYPSDIAVEWESNGQPENNYKTTPPVLDSDGSFFLYSKLTVDKSRWQQGNVFSCSVMHEALHNHYTQKSLSLSP
heavy 2: QDQLVQSGAEVKKPGASVKVSCKASGFNIKDTYIQWVRQAPGQGLEWMGRIDPLRKQTKYREKFEGRVTITADTSTNTAYMELSSLRSEDTAVYYCVRSGREFDYWGQGTLVTVSSASTKGPSVFPLAPSSKSTSGGTAALGCLVKDYFPEPVTVSWNSGALTSGVHTFPAVLQSSGLYSLSSVVTVPSSSLGTQTYICNVNHKPSNTKVDKKVEPKSCDKTHTCPPCPAPELLAGPSVFLFPPKPKDVLMISRTPEVTCVVVDVSHEEPEVKFNWYVDGVEVHNAKTKPREEQYNATYRVVSVLPVLHQDWLNGKEYKCKVSNDALPAPIEETISKAKGQPREPQVYTLPPSRCELTKNQVSLSCAVKGFYPSDIAVEWESNGQPENNYKTTPPVLDSDGSFFLVSKLTVDKSRWQQGNVFSCSVMHEALHNHYTQKSLSLSP
light: DIQMTQSPSSLSASVGDRVTITCRASQDIHKYIAWYQQKPGQAPRLLIQYTSTLQPGVPSRFSGSGSGTDYTFTISSLQPEDIATYYCLQYEQLRTFGGGTKVEIKRTVAAPSVFIFPPSDEQLKSGTASVVCLLNNFYPREAKVQWKVDNALQSGNSQESVTEQDSKDSTYSLSSTLTLSKADYEKHKVYACEVTHQGLSSPVTKSFNRGEC
notes: also called EGL-ART5; ART5

Source: patent publication US20260022175A1 (Chugai, published 2026)
